Assay: soluble on expression in E. coli; label from the status in PepcDB or PDB records

Row | Sequence | soluble on expression in E. coli
1 | ANCAVCDSPGDLLDQFFCTTCGQHYHGMCLDIAVTPLKRAGWQCPECKVCQNCKQSGEDSKMLVCDTCDKGYHTFCLQPVMKSVPTNGWKCKNCRICI | soluble
2 | MTVGYGFSASGDYSQSKIRADHASVTEQSGIYAGEDGYQIKVRDNTDLKGGIITSSQSAEDKGKNLFQTATLTHSDIQNHSRYEGKSFGIGGSFDLNGGWDGTVTDKQGRPTDRISLAAGYGSDSDSQSSITKSGINTRNIHITDEAGQLARTGRTAKETEARIYTGIDTETADQHSGRLKNSFDKDAVAKEINLQREVTKEFGRNATQAVAAVADKLGNTQSYERYQEARTLLEAELQNTDSEAEKAAFRASLGQVNAYLAENQSRYDTWKEGGIGRSILHGAGRQSAMRRAGMSVRRQ | not soluble
3 | MGSDKIHHHHHHMKQAYIFDMDGTLFQTNRILGHALEDAFDFLRMNGRWTGKTPLAEYQTIMGVSLPEVWQTLLPGHSDEERALVDRIFQDALIRHIEQGQGALYSGAEATLQALKETGHPLYIASNGWKVYLTAIVRQYGLNRWLDGVYSIEDVASSQKSDLVAYILSEHQLTDMVVVGDRISDFQAAKVNRLPAVGCRFDFSNEAELEQADVIIDDLRELFQIDLKAVTK | not soluble
4 | MAHHHHHHMASTDEVVLSENRALRVECEAQEVEIAQLKNYLHMSVTKPDLCFGQQRVTLNKCLNSFPEKAWQKLIDETPEVDSPAIITALEDQLADKNKHLTACLQEISNLRSRSGDGKTKPDSITDGNTAHLLSQITFLHNEVERLEQQVNAVRAAGKEELRVMTIEYNDKLQLREKENRLLTEQLRGRKNHLADGEDMAARTKTLESQLATAGIRKKFFTHREKQFPGKNPKIRGCY | not soluble
5 | QLLKVCMKLPKIDWYLGLSCPSNDMPLYLMRLFSRKPVVQMIHGPVGVARSSGYCLVKASAIYYLSNTRESLINALQAYLKTPKPATERYWSTLNASTFVNGLSRERWPKQANPISNRVFWAASLLKWKNVDLLLDALTLENTTTIQSTICYIKPNVPGVEYSTPDFNTKGVDWYESPNNLNELRAQCGVFVSTSVNEP | not soluble
6 | GMLKLCGFAASNYYNKVKLALLEKNVPFEEVLAWIGETDTTATPAGKVPYMITESGSLCESEVINEYLEAAYPQTPLLPRDPMQAGKVREIVTFLELYLELTARELYPEAFFGGKVSDNVKERQLKLLSRYVPAFAKLAKFSPYVAGDTFTLADCAAAVHLPLVSSCTKIIYGKDLLADLPVKEYLKTLSERPSVQKVNADRKANTELMLSRNK | soluble
7 | VAITDNRGVITHVNEKFCDISQYEYYELVGTTHKIINSGFHPRSFFKQMWKTIAQGNIWKGEICNRTKQGKLYWVDTTIVPLKDNDGLLKNYISIRTDITQ | not soluble
8 | DLQTLLDKSFNLIISTLDAKYCKILKLLNDGNFLVEAGVGWKPEDTGKVIKREEASVAGYTVLSKKPINIEDLDKKGSIERMGLYGYSEITHGISVLVGSLEKPYGVLAVHSTRKEKFTKEDACFLKGIASMLSLALERNKVESTL | not soluble
9 | MGSDKIHHHHHHMHLPNSQIYKNFGESMNPFDIMKASQIACCLEVSSFKPGNVHRNRDYRDIKYHHFINAGIAFGNVVYEAAQKDRDVGLYIKKAVIESKKWSPTNANLGIIMLHIPIAMAAGKLENFDENKLKENLKKIAENTTVEDALNVYDAINIAMAYVNKPKKGPDVTSEDAKKELIEKGLTLLDVYKISAEWDNISKEWVDNFKISFEGYNLLKKYYDELNNINLAVTKTFLNLLAKYPDTLIARKRGFETALKVSKMAEDVLNNFKEEKVKEFDKYLSKEGNKLNPGTTADLIASSLMIFILDRIDKRETILW | not soluble
10 | MGSDKIHHHHHHMLKDFAKLETFLIVVRERSFSKASAKLGISQPAVTQQIKYIEEYLDTKIIERKKNGVKLTKDGEKLLTIALRLERAIVTAEKETMKIIKKDFSFNIGASFTIGNYILPNCLGNIKEMIKNDVFVKIDSSDNIIEALIEKKIDLALIESPIFKDNIVYREWVEDEFVLFSNSPLPKTVKKEDLLTFSWICREWGSNTRRIINETLDDVGIDCTTFDIKGVVSSSTGVKHTVLKSPKFPEESPKPTVAILSKYVVQDDLVNNSLHESKIRGCKLKRKLYLAYLKDRKNDAFVDTVSSCLMCNKNLG | not soluble
11 | MGSDKIHHHHHHMTPIQSGILLEHRRFAIFMEAMIQGEFDAIRQGCKKFCQTLQELQQQYPDAGLGAVLAFGNDVWRDLDCNHCAAELKPFTPLGKGLAPATQRDLLIHIQSLRHDVNFTLAQAALAAFGSAIRIEEETHGFRWVEDRDLSGFIDGTENPQGDARHAVAIIPEGQPDAGGSYVFTQRWEHNLKQLQRFSVEQQEQMIGRTKQDNEELSSDERPVTSHLSRVDLKEDGKGLKILRQSLPYGTASGKNGLYFVAYCARLHNIEQQLLSMFGGRDGKRDDMLRFTRAVSGSYFFAPSLDQLLSL | not soluble
12 | MERNYEESALFEHQFWLKVLTDHSQFLLDALAPKEKEDIKKATYFVETFTNLLNKVRNVNLIAFSKEAERAAKEIRTFKLSIIQKQLEGKITIHFTPTFINHMVNEVEEYITVLEFLNKGEVPPVFHELHYHLVWLTDAAGHAGSISGGLDLVEKRLKEKSEEFTKHFEQFYLKAVEMTGYLRTELHHFPALKKFTKDVSLELKLFSHFLHEVEELELSNEILSALSARMADHMAREECYYLLKLAQSSGLEMPKCNPL | not soluble
13 | MSTDNLLQPKLIEATLGDYPVIQNMARFYVYDMSRYCGFISEEWTCPPDGLYESYDFKIYFTDPERKAFLIQIDNELAGFALLNKFGIQAVDWSMGEFFILAKFQGKGIGQSVAHQLWRTHPGEWEISVIPENIPALSFWRQAVMTYTLGRYKEQIKTVNYDIHQTQRIILSFNTQKQNKSCHSIPKKPITIDFVDNIPKSLEKKMTEDLIAYERTHGIDVNYKRFSIVLSEEGVTCGVINAFTAFAEIYIDDIWVDKAYRGKGYGKKLLQTLENHFKGQGFNNINLCTSAFQAPEFYRKCGYTAEFTRINQANPKLSKTFFVKFFDDENQTQGLF | soluble
14 | MREDVPRAVTTICSALQEQIEHGLLPHGSKLPAERKLSEVFDTTRITLREALLQLEAQGLIYREERRGWFISPPRLAYDLIRRSHFHAMVCAQGRVAHTQLLSARLQPASAMICEMLELPALSSVIQICRARRIDQRLVLYVEHYLRPELFPGILDHDLNESLIELYARCYDVHYGPVRFDVVPTALHADAAAALKVSLGSPGLRIARVNYDRKDRLIDCDLEYWRHDAIHVRAMVRDN | not soluble
15 | AGHDGSQLAARLDLPQGPVLATALFAHCFTCSKDIPAARRIAARLAAMGIAVLRFDFTGLGHSEGEFANTTFTSNVGDLAAAARYLAGRDMAPALLIGHSLGGAAVLRARAQIASVRAVVTIGAPADPGHVAHHFETALPRIQAEGAAEVCLGGRPFRIGRDFVEDIAASALQPAIADLRAALLVLHAPRDETVSIDNASQIFMAAKHPKSFVTLDDADHLISRARDAEYAAEVIAAWAGRYVD | not soluble
16 | MKNFEWNTSFSFAYMNNEVKHLYGEYENVLDANGNIVGSKEKDEYGKWWIGRPISAIWDYRVTGIWQPDEIEEAKKVGQLPGDPKVANNYTEDDIISSDGSRIPVYNDKDKEFLGQTTSPYILSMRNNFTILKNIDFSFNLYSCIGSKMKDTSYLNQVNASEIDYGLNQSIKEYWTPEHQSNTYARLNSKGPTGVNSPARYIDRSFIRLENISIGYTFPKSIVSRWGLSNLKVYGTIRNAALWTMSHWKLNDIETGGLAPRTYSLGINVTL | not soluble
17 | SNAIFMDYYENRKVMAEAQNIYEKSPMEEQSQDGEVRKQFKALQQINQEIVGWITMDDTQINYPIVQAKDNDYYLFRNYKGEDMRAGSIFMDYRNDVKSQNRNTILYGHRMKDGSMFGSLKKMLDEEFFMSHRKLYYDTLFEGYDLEVFSVYTTTTDFYYIETDFSSDTEYTSFLEKIQEKSLYKTDTTVTAGDQIVTLSTCDYALDPEAGRLVVHAKLVKRQ | soluble
18 | GPGSMPASASTRTVGDSSKNASTSSVTNAVKDPNVTLSRADVEAAFAFFDLHNHKCLKPATLKERLSAFYPNMTSSEYKFLLDEASGAPFTVDTLWNIIDNFNTTRTAMPPAVAGSLRFDPIREAFRIYDPQGSGSVDVVVLADIMKTIGFGDLSPNELTLLIRPADFDNDGKISLEDFMNFLSNHR | soluble
19 | METEEEIQNVNVHHGHNIRRTRIEKNIKQDALAALVNMTQPNVSKYEKMRVIEDEMLNRFARALNVPVEYLKTLEEDAPSVVFENITNNVHDNKDSSMGSTGYNNDSITNTFNPIDKITELYERLLKEKDEKYAALEKRIQGLEQQNNNGK | not soluble
20 | MLRNKAFVVRLYPNAAQAERINRTLGCARFVYNHFLARRIESYRQDGKGMIYAATDKALTLLKREEGTAWLAEVDKFALQQSLRDLERAYQNFFRTAKKSGKKVGFPKFKKKRTGEAYRTQFTNNNIEIGEGKLKLPKLGWVKTRGQRDMQGKILNVTVRRIHEGHYEASVLCEVEIPYLPAAPKFAAGVDVGIKDFAIVTDGKGEFEHHANPKYYRSSLRRLRKAQKTLSRRKKGSARYGRAKTTLARIHKRVANKRQDFIHKLTTSLVREYEITCTEHLKPDNMRKNRRLALSVSDAGWGEFIRQLEYKATWYGRLVSKISPYFPSSQICHDCGFKNPAVKNLAVREWTCPNCGETHDRDENAALNIRREGLVAAGMSDTQNAHGDCIRPTSVGSGLRSENHATSVVLEHHHHHH | soluble
21 | MGSDKIHHHHHHMKGNAPVLAAVDISKGFRVYRAPHQRMLQAIWGERKKFYSEFWALRNVSFQVFPGEVVGVIGCNGSGKSTLLQILAGTLRPTSGQVVRPERVAALLELGAGFNMEYTGRENIIFNAMLLGLGEQEISERLDEIIQFADIGEFIDRPVRTYSSGMFVRLAFSIAAYVDADVLIVDEALAVGDAAFQFKCLNRLEELLLKGITILLVSHDIQLIKSYCSRAIYLSKGRVIFDGDCETATELYLRDSIETQRAEVRSGSLIASGEHGNSVIAYGNGQGRFLSIRMGVLDEARDYFDSGERVWVEVLVQFDLPVPEHPKITLTIRDQRGYNLYGINNLLLGKALNVEPDGRLRTRISFDCDLQAGEYALTFRLENSLSESVCELMDKKVNAAIFRVFNSPKCFDAVVNLHGAFEPVPFCCETRATQ | not soluble
22 | MNIMEIEKTNRMNALFEFYAALLTDKQMNYIELYYADDYSLAEIADEFGVSRQAVYDNIKRTEKILETYEMKLHMYSDYVVRSEIFDDMIAHYPHDEYLQEKISILTSIDNRE | soluble
23 | GPGSMQISPPFCGCLSEMYARSLVKQGAFSCFRSCVRVGSVAIIGGEAHMFKQLYKRDEKLRLYRSLIKGASRFPLRSRRDIVTEEVRSSFRHPLNDSLTNEEVDRKLVLGWERAEAIKTYAQNMYWFHSRDEVSKEMMHHSLERDRQRVREMERCNTVGAAPRKTPEVTEFKSSMYNVHPDYYEKIGQKPLTHTRDIWRARGQYGSDVGGPRQKFFVRRFKALFPQGW | not soluble
24 | MYKDLEGKVVVITGSSTGLGKSMAIRFATEKAKVVVNYRSKEDEANSVLEEIKKVGGEAIAVKGDVTVESDVINLVQSAIKEFGKLDVMINNAGLENPVSSHEMSLSDWNKVIDTNLTGAFLGSREAIKYFVENDIKGTVINMSSVHEKIPWPLFVHYAASKGGMKLMTETLALEYAPKGIRVNNIGPGAINTPINAEKFADPEQRADVESMIPMGYIGEPEEIAAVAAWLASSEASYVTGITLFADGGMTLYPSFQAGRG | soluble
25 | MSLGATNRLACYSDPADHYSHRVRLVLAEKGVSVQLIDVDPAHLPRKLAEVNPYGSVPTLVDRDLALYESTVVMEYLEERYPHPPLMPVYPVARGNSRLLMHRIQRDWCALADTVLDPRSSEAARTEARKALRESLTGVSPLFSEFACFMSDEQSLVDCCLLPILWRLPVLGIELPRQAKPLLDYMERQFAREPFQASLSSVEREMRKLEGHHHHHH | soluble
